Results from the supplement of paper PMC10724198.
± gives the standard deviation of the averaged measurements.

What was measured:
[1] = system: Saccharomyces cerevisiae; assay: protein stability index of tFT-peptide fusion (C-terminal peptide) (PSI (0-1 scale)); higher = more stable (slower turnover)
Procedure: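 MPS profiling in S. cerevisiae of the tFT-X12 degron library: putative degron peptides plus stable controls, 12 aa, fused to the C-terminus of a sfGFP-mCherry timer. Cells are FACS-sorted into 8 mCherry/sfGFP bins and deep-sequenced. PSI runs from 0 (unstable) to 1 (stable). Backgrounds are wild type, das1Δ and doa10Δ at 30 °C, and wild type, das1Δ, cdc34-1 and cdc53-1 at 37 °C; 2-3 technical replicates each.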

[2] = system: Saccharomyces cerevisiae; assay: as above; conditions: genetic background: wild type; temperature: 30 C
[3] = genetic background: cdc34-1, temperature: 37 C
[4] = genetic background: cdc53-1, temperature: 37 C
[5] = genetic background: das1 deletion, temperature: 30 C
[6] = genetic background: das1 deletion, temperature: 37 C
[7] = genetic background: doa10 deletion, temperature: 30 C
[8] = genetic background: wild type, temperature: 30 C
[9] = genetic background: wild type, temperature: 37 C
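Further: PSI is a weighted mean of sequencing reads over stability bins, variants kept only with over 10 reads, mCherry proximal and sfGFP distal, peptide attached via GGGS linker.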

Sequence	protein stability index [1, 3]	protein stability index [1, 4]	protein stability index [1, 5]	protein stability index [1, 6]	protein stability index [1, 7]	protein stability index [1, 8]	protein stability index [1, 9]	protein stability index [2]
CFFPLFLCTAFC	0.465 ± 0.027	0.4713 ± 0.0024	0.394 ± 0.023	0.513 ± 0.011	0.387 ± 0.0062	0.39 ± 0.0053	0.492 ± 0.022	0.425 ± 0.017
CFSVFSVLCFFV	0.575 ± 0.02	0.6301 ± 0.0018	0.532 ± 0.03	0.627 ± 0.015	0.415 ± 0.035	0.414 ± 0.019	0.513 ± 0.0066	0.437 ± 0.029
CFVFYALFGFAV	0.37 ± 0.037	0.463 ± 0.027	0.302 ± 0.036	0.484 ± 0.0052	0.252 ± 0.0068	0.285 ± 0.017	0.431 ± 0.046	0.401 ± 0.013
CLISILLFLCFT	0.439 ± 0.029	0.509 ± 0.074	0.392 ± 0.014	0.459 ± 0.037	0.376 ± 0.021	0.39 ± 0.021	0.446 ± 0.0076	0.4162 ± 0.0015
CLLVCCCFYRNV	0.501 ± 0.043	0.558 ± 0.0066	0.409 ± 0.032	0.586 ± 0.0086	0.371 ± 0.015	0.399 ± 0.025	0.523 ± 0.0091	0.469 ± 0.0069
CLVKIVIFFLFS	0.22 ± 0.011	0.326 ± 0.016	0.217 ± 0.037	0.371 ± 0.0075	0.191 ± 0.012	0.211 ± 0.024	0.34 ± 0.019	0.349 ± 0.035
CNIYVLIIIKKY	0.1831 ± 0.00032	0.298 ± 0.036	0.192 ± 0.026	0.344 ± 0.076	0.157 ± 0.0082	0.164 ± 0.039	0.325 ± 0.049	0.266 ± 0.1
CPPPCPLYMLLC	0.506 ± 0.03	0.614 ± 0.041	0.536 ± 0.03	0.6121 ± 0.0031	0.163 ± 0.017	0.17 ± 0.024	0.171 ± 0.013	0.264 ± 0.025
CRLLYYIPCGLF	0.656 ± 0.02	0.703 ± 0.026	0.534 ± 0.029	0.701 ± 0.035	0.359 ± 0.022	0.403 ± 0.014	0.5973 ± 0.00064	0.49841 ± 0.00044
CRRLCGWLFVCV	0.466 ± 0.024	0.522 ± 0.025	0.387 ± 0.037	0.548 ± 0.014	0.396 ± 0.0074	0.38 ± 0.025	0.513 ± 0.036	0.46 ± 0.0068
CSFELSVCLMLR	0.063 ± 0.0088	0.07758 ± 0.00064	0.133 ± 0.013	0.198 ± 0.016	0.557 ± 0.015	0.107 ± 0.007	0.1855 ± 0.0013	0.188 ± 0.032
CSLRLCVRGAIV	0.667 ± 0.022	0.702 ± 0.021	0.602 ± 0.01	0.71597 ± 0.00049	0.586 ± 0.022	0.606 ± 0.0057	0.675 ± 0.024	0.0268 ± 0.022
CSSSNRRRYFVL	0.603 ± 0.034	0.706 ± 0.027	0.66 ± 0.014	0.724 ± 0.033	0.115 ± 0.022	0.131 ± 0.037	0.191 ± 0.0041	0.187 ± 0.023
CVARWPRPAGSS	0.699 ± 0.035	0.735 ± 0.047	0.655 ± 0.015	0.729 ± 0.0097	0.641 ± 0.017	0.673 ± 0.035	0.715 ± 0.015	0.723 ± 0.026
CVFFPFLGVCYV	0.4206 ± 0.0039	0.43047 ± 8.6e-05	0.333 ± 0.025	0.473 ± 0.0093	0.288 ± 0.01	0.336 ± 0.019	0.451 ± 0.0089	0.425 ± 0.017
CVGRPIALAVRT	0.52676 ± 0.0004	0.519 ± 0.048	0.375 ± 0.04	0.56 ± 0.0093	0.338 ± 0.025	0.38 ± 0.028	0.51959 ± 0.00012	0.511 ± 0.022
CVLLRPGFLVLV	0.1771 ± 0.0015	0.148 ± 0.011	0.207 ± 0.021	0.278 ± 0.013	0.2144 ± 0.0018	0.166 ± 0.014	0.216 ± 0.016	0.234 ± 0.011

Sequence	protein stability index [1, 3]	protein stability index [1, 4]	protein stability index [1, 5]	protein stability index [1, 6]	protein stability index [1, 7]	protein stability index [1, 8]	protein stability index [1, 9]	protein stability index [2]
CVYGILLLVDVR	0.0231 ± 0.00051	0.0547 ± 0.039	0.106 ± 0.032	0.128 ± 0.005	0.0714 ± 0.034	0.0971 ± 0.018	0.143 ± 0.066	0.189 ± 0.0074
CWDNTLKTMRQM	0.67 ± 0.0063	0.732 ± 0.022	0.655 ± 0.042	0.7322 ± 0.0059	0.307 ± 0.015	0.333 ± 0.018	0.5969 ± 0.0032	0.228 ± 0.1
CWLFCACFVRLV	0.125 ± 0.014	0.154 ± 0.0052	0.211 ± 0.019	0.333 ± 0.015	0.0691 ± 0.0032	0.0636 ± 0.0022	0.07618 ± 0.00043	0.101 ± 0.0076
CYFLFFLSYSLE	0.237 ± 0.0066	0.343 ± 0.045	0.231 ± 0.05	0.455 ± 0.019	0.194 ± 0.039	0.226 ± 0.029	0.439 ± 0.0046	0.297 ± 0.0097
CYTGYMYKLLVG	0.507 ± 0.054	0.547 ± 0.01	0.48 ± 0.031	0.59019 ± 0.00036	0.2458 ± 0.00076	0.243 ± 0.027	0.423 ± 0.015	0.346 ± 0.027
DFHLPWPVALVW	0.134 ± 0.02	0.144 ± 0.016	0.217 ± 0.018	0.277 ± 0.0039	0.188 ± 0.0067	0.208 ± 0.026	0.24 ± 0.013	0.387 ± 0.039
DFIVVIRFIQII	0.268 ± 0.012	0.376 ± 0.009	0.266 ± 0.023	0.3971 ± 0.0035	0.1447 ± 0.001	0.154 ± 0.027	0.235 ± 0.0043	0.232 ± 0.017
DFVYFPPIPVSS	0.303 ± 0.0088	0.352 ± 0.039	0.253 ± 0.051	0.462 ± 0.011	0.218 ± 0.0036	0.266 ± 0.032	0.409 ± 0.006	0.337 ± 0.018
DISWVFVLLIFF	0.333 ± 0.036	0.402 ± 0.012	0.3 ± 0.033	0.485 ± 0.029	0.318 ± 0.023	0.279 ± 0.039	0.445 ± 0.011	0.382 ± 0.026
DMWYLLWRVCYI	0.51263 ± 0.00047	0.549 ± 0.056	0.43 ± 0.022	0.582 ± 0.02	0.37 ± 0.02	0.409 ± 0.026	0.56 ± 0.01	0.48 ± 0.028
EGALSGGGKTSG	0.643 ± 0.045	0.719 ± 0.019	0.634 ± 0.016	0.7181 ± 0.0047	0.636 ± 0.014	0.631 ± 0.012	0.692 ± 0.018	0.651 ± 0.24
EKIIVAVLFVVP	0.354 ± 0.032	0.482 ± 0.054	0.305 ± 0.02	0.504 ± 0.012	0.281 ± 0.0051	0.302 ± 0.02	0.439 ± 0.02	0.437 ± 0.043
ENKGGNQKRRKK	0.686 ± 0.048	0.743 ± 0.056	0.628 ± 0.056	0.736 ± 0.012	0.646 ± 0.014	0.635 ± 0.021	0.698 ± 0.035	0.559 ± 0.18
EQMRRYILVSYV	0.522 ± 0.021	0.609 ± 0.025	0.427 ± 0.019	0.5998 ± 0.0036	0.198 ± 0.0082	0.243 ± 0.02	0.4255 ± 0.0019	0.352 ± 0.033
ERFRLYFRPGIF	0.635 ± 0.036	0.7213 ± 0.00075	0.653 ± 0.031	0.709 ± 0.021	0.296 ± 0.03	0.332 ± 0.015	0.58 ± 0.008	0.234 ± 0.091
ESCWVSRVGVCR	0.685 ± 0.03	0.731 ± 0.038	0.649 ± 0.062	0.7347 ± 0.0049	0.588 ± 0.0086	0.608 ± 0.01	0.687 ± 0.018	0.694 ± 0.076
